The labels stand for the following.
B1: ADI-15632 (antibody, V domains shown)
VH: QVQLVQSGGGLVQPGRSLRLSCTASGFSFSDYGVTWVRQAPGKGLEWIGFVRTKGYGGTTEYAASVRGRFTISRDDSKSVAYLQLNSLKVEDTAVYYCSGASRGFWSGPTYYYFGMDVWGHGTTVTVSS
VL: EIVLTQSPLSLAVTPGEPASISCRSSQSLLHGNGYNYLDWYLQKPGQSPQLLIFWGSYRASGAPDRFSASGSGSEFTLKIRRVEAEDVGVYYCMQPLQTTFGQGTKVDIK
notes: IgG; also called Antibody Number 197
B2: ADI-15663 (antibody, V domains shown)
VH: QVQLVQSGGGLVKPGGSLRLSCAASGFTFSSYTMNWVRQAPGKGLEWVSSITGGSSFTNYADSLEGRFTISRDNAKSSLFLQMNSLRVEDTAVYYCARDQPGTIFGVVQDYWGQGTLVTVSS
VL: QSVLTQPPSVSGAPGQRVTISCTGGSSNIGAGYDVHWYQQLPGTAPKLLIYGNSNRPSGVPDRFSGSKSGTSASLAITGLQAEDEADYYCQSYDSRLSVVFGGGTKVTVL
notes: IgG
B3: ADI-15628 (antibody, V domains shown)
VH: QVQLVQSGGGVVQPGRSLRLSCAASGFTFSDFSMHWVRQAPGKGLEWVALISNDGSNKYYSDSLKGSFIISRDNSKNTLYLQLNSLGAEDTALYYCARDAVPHYDYVWGNFDYWGPGTLVTVSS
VL: QPVLTQPASVSASPGQSITISCTGTSSDVGGYNYVSWYQQHPGKAPKLIVYEVSNRPSGVSNRFSGSKSGNTASLTISGLQADDEADYYCSSYTSFTPVVFGGGTKVTVL
notes: IgG
B4: ADI-15652 (antibody, V domains shown)
VH: B3 VH with Q1E, V5L, Q6E, P116Q
VL: B3 VL with P2S, V50I, V107L
notes: IgG
B5: ADI-15578 (antibody, V domains shown)
VH: QVQLVQSGGGLVQPGGSLRLSCVGSGFTFSTYSMNWVRQAPGKGLEWVSHISSSSVTMYYADFVKGRFTISRDNAKNSLYLQMTSLRAEDTAVYYCARDAGPVWSGYYDYGMDVWGQGTTVTVSS
VL: ETTLTQSPATLSLSPGERATLSCRASQSVSSLLAWYQQKPGQAPRLLIFDASKRATGIPARFSGSGSGTDFTLTISSLEPEDFAVYYCQQRYNWPPLTFGGGTKVEIK
notes: IgG
B6: ADI-15666 (antibody, V domains shown)
VH: QVQLQQWGAGLLKPSETLSLTCGVSDGSFSAYYWNWIRQSPGKGLEWIGETNPSENTNYSPSLKNRVTISADRSANQFSLRLRSVTAADTGVYYCARGRGYYGSTTDYRGLHWFDPWGQGTLVTVSS
VL: ETTLTQSPVTLSVSPGERATLSCRASQSVSFNLAWYQQKPGQAPRLLIYGASTRVTNLPLRFSGSGSGTEFTLTISSLQSEDFAVYYCQQYNNWPRTFGQGTKLEIK
notes: IgG; also called Antibody Number 230
B7: ADI-15654 (antibody, V domains shown)
VH: QVQLVQSGAEVKRPGSSVKVSCKASGGTSSSYIISWVRQAPGQGLEWMGGIIPIPISGAPTYAQKFQGRANYAQKFEGRLTITADRLTSTAYMELSSLTSEDTAVYYCVRDERNGGYWGQGTLVTVSS
VL: QSALTQPASVSGSPGQSITISCTGTSNDVGAYNHVSWYQQHPGKAPKLMIYDVTNRPSGVSNRFSGSKSGNTASLTIFGLQTDDEADYYCSSYTISSTLVFGGGTQLTVL
notes: IgG; also called Antibody Number 218
B8: ADI-15653 (antibody, V domains shown)
VH: QVQLVQSGAEVKKPGSSVKVSCKSSGGTFSNYIISWVRQAPGQGLEWMGGIVPLSGTTDYAQKFQGRVTITADKSTTTAYMELRTLRPEDTAVYYCARGSGGSNAYFDPWGQGTLVTVSS
VL: QSVVTQPPSVSVAPGKTAKITCGGNNIGSKSVYWYQQKPGQAPVLVMYYDTYRPSGIPERFSGSNSGNSATLTISRVDAGDEADYYCQVWDSRSDHPYVFGSGTKLTVL
notes: IgG
B9: ADI-15644 (antibody, V domains shown)
VH: QVQLVQSGAEVKKPGSSVKVSCRTSGGTFSSFSISWVRQAPGQGLEWMGGIIPIFGTANYAKKFQGRVTITADESTDTAYMELRSLRSEDTAVYYCARDSPKISATEYYFDYWGQGTLVTVSS
VL: DIQVTQSPSTLSASVGDRVTITCRASQSFTSWLAWYQQKPGKAPKLLIYKASTLDSGVPSRFSGSGSGTEFTLTINGLQPDDFATYYCQHYDSYSGTFGQGTRLEIK
notes: IgG
B10: ADI-15573 (antibody, V domains shown)
VH: QVQLVQSGAEVKKPGASVKISCKTSGYTFTSSVISWVRQAPGQGLEWVGWITGHRSSTNYAQRLQGRVTMTTDTSTSTAYMELRSLRSDDTAVYYCARADGGSGSYYSAWGQGTLVTVSS
VL: SYELTQPPSASVAPGKTARISCGGNNIGTKSVHWYQQKPGQAPVLVIYHDSHRPSGIPERFSGSNSGNTATLTISRVEAGDEADYYCQLWDSSSDSHVFGTGTKLTVL
notes: IgG; also called Antibody Number 143
B11: ADI-15604 (antibody, V domains shown)
VH: EVQLLESGGGLVKPGGSLRLSCGASGFKFSDYYMSWIRQAPGKGLEWVSHISSSNSYINYADSVKGRFTISRDNARNSLSLQMNSLRAEDTAVYYCARFPLYCSRSSCSHYVDYWGQGTLVTVSS
VL: B2 VL with G25S, S26G, G52D, S54N, A82V, S95R, R96S
notes: IgG; also called Antibody Number 170
B12: ADI-15603 (antibody, V domains shown)
VH: QVQLVQSGGGLVQPGGSLRLSCAASGFTFGRHAMTWVRQAPGKGLEWVAGITATGDPTYYPDSVKGRFAVSRDNSRNTLYLQMDSLRVEDTALYYCARSWDDYGDLDWYFALWGRGTMVTVSS
VL: EIVMTQSPAILSVSPGERATLSCRASQSVSSSLAWYQQKPGQAPRLLIYGASTRATGIPPRFSGSGSGTQFTLTISSLQSEDVAVYYCQQYSDWPPLTFGGGTKVEIK
notes: IgG
B13: ADI-15606 (antibody, V domains shown)
VH: B12 VH with Q1E, V5L, Q6E, G30R, H32Y, G50A, P57T, V88A, R98K, M118L
VL: B12 VL with E1D, V83F
notes: IgG

Changes are numbered by the printed parent chain.

The first experiment concerns the target T1, postfusion RSV F ectodomain (F ΔFP), subtype A (respiratory syncytial virus subtype A, UniProt P03420 26-109; P03420 147-524).
T1 construct: extracellular domain; also called Postfusion subtype A
Briefly: BLI, IgG on sensor. (In BLI a coated tip is dipped into the sample, and binding shifts an interference pattern.)
Description: (§1) IgG binding to DS-Cav1 and FA FP was determined by BLI measurements using a FortéBio Octet HTX instrument (Pall Life Sciences). […] Data was analyzed using the ForteBio Data Analysis Software 7. The data was fit to a 1:1 binding model to calculate an association and dissociation rate, and KD was calculated using the ratio kd/kₐ.
In turn, B1 returned an equilibrium dissociation constant (Kd) of 2.25 nM.

The molecule B2 yielded a Kd of 2.32 nM.

B3 showed an equilibrium dissociation constant (Kd) of 2.47 nM.

Molecule B4 had a Kd of 4.98 nM.

Consider B5, for which the dissociation constant Kd came to 1.27 nM.

Take B6: the affinity, expressed as Kd, was 0.499 nM.

Regarding B7, the binding result is reported as “no binding (tested: BLI response <0.05 nm)”.

As for B8, binding was put at a Kd of 0.312 nM.

In the case of B9, binding was characterised by a dissociation constant (Kd) of 0.301 nM.

The molecule B10 had a Kd of 0.198 nM.

The next experiment addresses T2, prefusion-stabilized RSV F ectodomain (DS-Cav1), subtype B (respiratory syncytial virus subtype B).
T2 construct: extracellular domain; also called Prefusion subtype B
Kind of experiment: BLI, IgG on sensor.
Description: as §1
The molecule B1 came in with a Kd of 29.4 nM.

In turn, B2 yielded a Kd of 0.287 nM.

Molecule B11 returned a Kd of 0.46 nM.

Consider B3, for which the dissociation constant (Kd) came out at 0.659 nM. This Kd and that of the molecule before are within 1.5-fold of each other.

As for B4, the affinity, expressed as Kd, was 0.377 nM.

B12 came in with a Kd of 6.97 nM.

As for B13, the dissociation constant (Kd) stood at 5.75 nM.

Molecule B7 registered a Kd of 4.47 nM.

For a further experiment, the target named is T3, postfusion RSV F ectodomain, subtype B (respiratory syncytial virus subtype B).
T3 construct: extracellular domain; also called Postfusion subtype B
Briefly: BLI, IgG on sensor.
Description: as §1
Molecule B11 registered a Kd of 1.77 nM.

For B5, the equilibrium dissociation constant (Kd) came to 1.54 nM. The Kd values of the last two molecules are within 1.5-fold of each other.

B6 returned an equilibrium dissociation constant (Kd) of 0.546 nM.

Turning to B12, the Kd turned out to be 11.9 nM. Compared with the last molecule, the Kd is about 22-fold higher.

B13 displayed a Kd of 5.89 nM.

Take B8: the dissociation constant (Kd) was 0.39 nM.

On to B9, for which the equilibrium dissociation constant (Kd) was 0.194 nM.

On to B10, for which binding was characterised by a dissociation constant (Kd) of 0.199 nM.

For the next experiment, the target named is RSV F protein of subtype A strain A2, on virus (respiratory syncytial virus subtype A …, UniProt P03420 26-574). Kind of experiment: cell-based or functional assay.
As for B1, the “Neut IC50 (ug/ml) subtype A” value is 1.42 µg/mL.

For the molecule B2, the “Neut IC50 (ug/ml) subtype A” value was found to be 0.003 µg/mL.

For the molecule B11, the “Neut IC50 (ug/ml) subtype A” value was determined as 0.081 µg/mL.

In the case of B3, the “Neut IC50 (ug/ml) subtype A” value stood at 0.014 µg/mL.

For B4, the “Neut IC50 (ug/ml) subtype A” value worked out at 0.012 µg/mL.

Regarding B6, the “Neut IC50 (ug/ml) subtype A” value was found to be 1.41 µg/mL.

Regarding B12, the “Neut IC50 (ug/ml) subtype A” value came to 0.795 µg/mL.

B13: the “Neut IC50 (ug/ml) subtype A” value was over 10 µg/mL.

On to B7, for which the “Neut IC50 (ug/ml) subtype A” value is 3.76 µg/mL.

B8: the “Neut IC50 (ug/ml) subtype A” value was over 10 µg/mL.

For the molecule B9, the “Neut IC50 (ug/ml) subtype A” value is over 10 µg/mL.

B10: the “Neut IC50 (ug/ml) subtype A” value came out at 6.25 µg/mL.

The next experiment has as its target RSV F protein of subtype B strain 18537, on virus (respiratory syncytial virus subtype B …, UniProt P13843 26-574). Briefly: cell-based or functional assay.
Consider B1, for which the “Neut IC50 (ug/ml) subtype B” value came to 5.72 µg/mL.

Regarding B2, the “Neut IC50 (ug/ml) subtype B” value was determined as 0.019 µg/mL.

Consider B11, for which the “Neut IC50 (ug/ml) subtype B” value stood at 0.082 µg/mL.

For the molecule B3, the “Neut IC50 (ug/ml) subtype B” value amounted to 0.034 µg/mL.

Take B4: the “Neut IC50 (ug/ml) subtype B” value stood at 0.036 µg/mL.

Consider B6, for which the “Neut IC50 (ug/ml) subtype B” value is over 10 µg/mL.

Consider B12, for which the “Neut IC50 (ug/ml) subtype B” value came out at 0.273 µg/mL.

Turning to B13, the “Neut IC50 (ug/ml) subtype B” value was found to be 0.802 µg/mL.

For B7, the “Neut IC50 (ug/ml) subtype B” value amounted to 3.27 µg/mL.

Consider B8, for which the “Neut IC50 (ug/ml) subtype B” value is over 10 µg/mL.

B9: the “Neut IC50 (ug/ml) subtype B” value was over 10 µg/mL.

Turning to B10, the “Neut IC50 (ug/ml) subtype B” value is 1.67 µg/mL.

One may read the Kd as the constant that tells how readily two partners part at equilibrium. Low readings indicate a tighter complex, high ones a looser complex.
